Reference: patent US20180222982A1 (Novartis, published 2018)
Each block holds one binder with its values, some of them ahead of it.

Key:
[1] = target: T1, human PD-1 expressed on cells (human, UniProt Q15116 25-288); assay: competition binding assay; blocks PD-L1 binding to human PD-1-expressing 300.19 cells
T1 construct: whole, on cells; those cells are treated here as the same human PD-1; also called Programmed Death 1; human PD-1 transfected Jurkat cells

[2] = target: T2, cynomolgus PD-1 expressed on cells (cynomolgus); assay: FACS on cynomolgus T cells (e.g., CD3/CD28 activated CD4 T cells)
T2 construct: whole, on cells; also called cells transfected with cynomolgus PD-1

[3] = target: T3, human PD-1-Ig fusion protein (human, UniProt Q15116 25-167); assay: ELISA on human PD-1-Ig fusion protein
T3 construct: not shown: Ig part of the fusion protein
T3 sequence (Q15116 25-167): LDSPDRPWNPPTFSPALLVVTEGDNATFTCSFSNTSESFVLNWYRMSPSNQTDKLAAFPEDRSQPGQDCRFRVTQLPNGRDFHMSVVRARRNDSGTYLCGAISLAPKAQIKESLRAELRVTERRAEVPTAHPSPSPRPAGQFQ

[4] = target: T1, human PD-1 expressed on cells; assay: FACS on human PD-1 transfected Jurkat cells
[5] = target: T1, human PD-1 expressed on cells; assay: competition binding assay; blocks PD-L2 binding to human PD-1-expressing 300.19 cells
[6] = target: T2, cynomolgus PD-1 expressed on cells; assay: FACS on cells transfected with cynomolgus PD-1
[7] = target: T1, human PD-1 expressed on cells; assay: cell-based or functional assay
[8] = target: T1, human PD-1 expressed on cells; assay: FACS blocking of PD-L1-Ig binding to PD-1-expressing 300.19 cells

T1 sequence (Q15116 25-288): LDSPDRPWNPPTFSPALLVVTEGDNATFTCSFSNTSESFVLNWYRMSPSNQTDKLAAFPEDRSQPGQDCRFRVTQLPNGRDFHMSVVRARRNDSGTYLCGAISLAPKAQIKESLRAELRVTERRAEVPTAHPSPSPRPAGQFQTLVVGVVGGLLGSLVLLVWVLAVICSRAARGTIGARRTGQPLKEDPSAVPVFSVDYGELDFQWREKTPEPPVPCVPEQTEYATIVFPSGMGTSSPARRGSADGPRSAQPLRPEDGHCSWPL

- IC50 [1]: 0.3 nM
- Kd [2]: 0.4 nM
- Kd [3]: 0.04 nM
- Kd [4]: 0.06 nM
- IC50 [5]: 0.9 nM
- Kd [6]: 0.6 nM
B1: murine anti-PD-1 monoclonal antibody BAP049 (antibody, V domains shown)
VH: QVQLQQSGSELVRPGASVKLSCKASGYTFTTYWMHWVRQRPGQGLEWIGNIYPGTGGSNFDEKFKNRTSLTVDTSSTTAYMHLASLTSEDSAVYYCTRWTTGTGAYWGQGTLVTVSA
VL: DIVMTQSPSSLTVTAGEKVTMSCKSSQSLLDSGNQKNFLTWYQQKPGQPPKLLIFWASTRESGVPDRFTGSGSVTDFTLTISSVQAEDLAVYYCQNDYSYPCTFGGGTKLEIK
notes: the murine constant regions are not; also called Mu mAb; murine mAb BAP049

- ex vivo EC50 for PD-1 blockade [7]: 0.42 µg/mL
B2: humanized anti-PD-1 antibody BAP049-Clone-E (antibody, human IgG4 S228P, kappa)
heavy: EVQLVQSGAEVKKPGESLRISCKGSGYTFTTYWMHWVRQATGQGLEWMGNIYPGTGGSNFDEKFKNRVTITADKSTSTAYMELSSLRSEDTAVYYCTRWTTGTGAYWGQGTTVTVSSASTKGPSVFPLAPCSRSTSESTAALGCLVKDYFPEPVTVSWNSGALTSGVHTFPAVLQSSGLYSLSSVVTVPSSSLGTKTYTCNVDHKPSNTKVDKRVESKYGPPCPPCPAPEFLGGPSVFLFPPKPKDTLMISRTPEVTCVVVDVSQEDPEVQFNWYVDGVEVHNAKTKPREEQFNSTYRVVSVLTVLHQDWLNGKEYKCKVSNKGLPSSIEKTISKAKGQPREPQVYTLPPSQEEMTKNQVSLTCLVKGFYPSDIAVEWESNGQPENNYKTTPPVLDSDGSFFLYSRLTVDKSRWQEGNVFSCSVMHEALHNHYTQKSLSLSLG
light: EIVLTQSPATLSLSPGERATLSCKSSQSLLDSGNQKNFLTWYQQKPGQAPRLLIYWASTRESGVPSRFSGSGSGTDFTFTISSLEAEDAATYYCQNDYSYPYTFGQGTKVEIKRTVAAPSVFIFPPSDEQLKSGTASVVCLLNNFYPREAKVQWKVDNALQSGNSQESVTEQDSKDSTYSLSSTLTLSKADYEKHKVYACEVTHQGLSSPVTKSFNRGEC

- IC50 (read off the curve) [8]: ~1 µg/mL
B3: humanized anti-PD-1 antibody BAP049-hum09 (antibody, human IgG4 S228P, kappa)
heavy: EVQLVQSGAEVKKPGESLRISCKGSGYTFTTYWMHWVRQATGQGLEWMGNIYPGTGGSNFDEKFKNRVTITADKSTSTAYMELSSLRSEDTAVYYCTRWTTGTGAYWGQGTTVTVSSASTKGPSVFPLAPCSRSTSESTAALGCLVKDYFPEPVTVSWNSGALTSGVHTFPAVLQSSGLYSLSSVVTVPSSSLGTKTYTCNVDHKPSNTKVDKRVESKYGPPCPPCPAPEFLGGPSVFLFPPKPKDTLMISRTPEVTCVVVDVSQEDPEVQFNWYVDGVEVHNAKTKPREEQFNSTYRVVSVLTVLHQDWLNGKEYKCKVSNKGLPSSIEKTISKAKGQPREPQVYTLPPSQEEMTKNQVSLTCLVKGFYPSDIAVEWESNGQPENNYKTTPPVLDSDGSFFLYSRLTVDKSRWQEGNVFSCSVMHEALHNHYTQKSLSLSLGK
light: EIVLTQSPDFQSVTPKEKVTITCKSSQSLLDSGNQKNFLTWYQQKPGQAPRLLIYWASTRESGVPSRFSGSGSGTDFTFTISSLEAEDAATYYCQNDYSYPYTFGQGTKVEIKRTVAAPSVFIFPPSDEQLKSGTASVVCLLNNFYPREAKVQWKVDNALQSGNSQESVTEQDSKDSTYSLSSTLTLSKADYEKHKVYACEVTHQGLSSPVTKSFNRGEC
notes: Whole IgG4(S228P)/kappa; tested as concentrated supernatant of transiently transfected CHO cells; also called Clone No. 09
